Test results published in the nanobody polyreactivity screen of Harvey et al. (2022).

Test: yeast display, Sf9 membrane polyspecificity reagent, FACS + sequencing; frameworks hold sequencing errors
Outline: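 Synthetic nanobody libraries on Saccharomyces cerevisiae BJ5465 were galactose-induced for 36–48 hours, stained 1 hour at 4 °C with 10% biotinylated, detergent-solubilized Sf9 membrane reagent and enriched on streptavidin microbeads. FACS then separated cells into low and high (top ~1%) gates by anti-HA (expression) and streptavidin (reagent binding) fluorescence. Genes were colony-PCR amplified, MiSeq 2 × 250 sequenced and CDR-length filtered. A clone's polyreactivity label is that of its gate of origin.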

Row | Sequence | polyreactivity (PSR sort gate)
1 | QVQLVESGGGIVQAGGSLRLSCAASGRTFYYYAMGWYRQAPGKERELVASISWSGGSTYYADSVKGRFTISRDNAKNTVYLQMNSLKPEDTAVYYCNAQYHTYRWLYAVYLSGDYWGQGTQVTVSS | low polyreactivity
2 | QVQLVESGGGIVQAGGSLRLSCAASGRTIYFNAMGWYRQAPGKERELVATISRSTGSTYYADSVKGRFTISRDNAKNTVYLQMNSLKPEYTAVYYCNATPWGYARMDYWGQGTQVTVSS | low polyreactivity
3 | QVQLVESGGGIVQAGGSLRLSCAASGSIFDYYTKAWYRQAPGKEREMVAAISWSGGSTYYADSVKGRFTISRDNAKNTVYLQMYSLKPEDTAVYYCATRVRTRTGYQYYYWGQGTQVTVSS | high polyreactivity
4 | QVQLVESGGGIVQAGGSLRLSCAASGSIFLYYAMGWYRQAPGNERQLVATINWSGGTTYYADSVKGRFTISRDNAKNTVYLQMNSLKPEDTAVYYCNKAKTAYRGQYDYWGQGTQVTVSS | high polyreactivity
5 | QVQLVESGGGIVQAGGSLRLSCAASGSIFNIYAMGWYRQAPGKERELVAAIRWTGGSTYYADSVKGRFTISRDNAKNTVYLQMNILIPEDTAVYYCAADPWYPRGYYWGQGTQVTVSS | high polyreactivity
6 | QVQLVESGGGIVQAGGSLRLSCAASGSIFRWNAMGWYRQAPGKESELVAAIRWSSGSTYYADSVKGRFTISRDNAKNTVYLQMNSLKPEDTAVYYCAASRATIKYPKREYWGQGTQVTVSS | high polyreactivity
7 | QVQLVESGGGIVQAGGSLRLSCAASGSIFSFNAMGWYRQAPGKERELVAAISRGGSTYYADSVKGRFTISRDNAKNTVYLQMNSLKPEDTAVYYCAADIYGHSYSYYLGEYWGQGTQVTVSS | high polyreactivity
8 | QVQLVESGGGIVQAGGSLRLSCAASGSIFSFYAMGWYRQAPGKERELVAAIDVSGGSTYYADSVKGRFTISRDNAKNSVYLQMNSLKPEDTAVYYCAKDVRDQYDYWGQGTQVTVSS | low polyreactivity
9 | QVQLVESGGGIVQAGGSLRLSCAASGSIFSTNAMGWYRQAPWKERELVAAIDITNYADSVKGRFTISRDNAKNTVYLQMNSLKPEDTAVYYCNADTYSVVREGDYWGQGTQVTVSS | low polyreactivity
10 | QVQLVESGGGIVQAGGSLRLSCAASGSIFTHYAMGWDRQAPGKERELVATISSTGSTDYADSVKGRFTISRDNAKNTVFLQINSLKPEDTAVYYCAAVSFYKTRATYYFWYDYWGQGTQVTVSS | low polyreactivity
11 | QVQLVESGGGIVQAGGSLRLSCAASGSIFYAYAMGWYRQAPGKERELVASISRGVNTNYADSVKGRFTISRDNAKNTVYLQMNSLKPEDTAVYYCNARLRYGHGYGYWGQGTQVTVSS | low polyreactivity
12 | QVQLVESGGGIVQAGGSLRLSCAASGSTFDYYAMGWYRQAPGKEMELVAGISASGGSTYYADSVKGRFTISRDNAKNTVYLQMNSLKPEDTAVYYWASYYKPPGYDYWGQGTQVTVSS | low polyreactivity
13 | QVQLVESGGGIVQAGGSLRLSCAASGSTFEHNAMGWYRQAPGKEREFVAAITGSGGSTYYADSVKGRFTISRDNAKNTVYLQMTSLKPEDTAVYYCAADIQDGWYWWDIYDYWGQGTQVTVSS | low polyreactivity
14 | QVQLVESGGGIVQAGGSLRLSCAASGSTFGVYAMGWYRQAPGKERDLVSVIRRGGGTDYADSVKGRFTISRDNAKNTVYLQMNSLNPEVTAVYYCAATVVRSGYLTLEMDYWGQGTQVTVSS | low polyreactivity
15 | QVQLVESGGGIVQAGGSLRLSCAASGSTFLYYAMGWSRQAPGKEREFVAAISISGGSTYYADSVKGRFTISRDNAKNTVYLQMNSLKPEDTAVYYCAAEVGIVDYDYWGQGTQVTVSS | low polyreactivity
16 | QVQLVESGGGIVQAGGSLRLSCAASGSTFNYNAMGWYRQAPGKERELVAAITRSGDSTYADSVKGRFTISRDNAKNTFYLQMNSLKPEYTAVYYCAKRYTHYSFRRFDYWGQGSQVTVSS | low polyreactivity
17 | QVQLVESGGGIVQAGGSLRLSCAASGSTFTLYAMGWYRQAPGQERELVAAITSDDSTYYADSVKGRFTISRDNAKNTVYLQMNSLKPEDTAVYYCAADVYYGDYEMDYWGQGTQVTVSS | low polyreactivity
18 | QVQLVESGGGIVQAGGSLRLSCAASGSTFYVNTMGWYRQAPGKERDLVAAISYTGGNTYYADSVKGRFTISRDNAKNTVYLQMNSLKPEDTAVYYCAARILYRGTGYPYRMNYWGQGTQVTVSS | high polyreactivity
19 | QVQLVESGGGIVQAGGSLRLSCAASGSTFYVNVMGRYRQAPGKERELVAGITIRDGATYYADSVKGRFTISRDNAKITVYLQMNSLNPEDTAVYYCARAGDGEYKRDYWGQGTQVTVSS | low polyreactivity
20 | QVQLVESGGGIVQAGGSLRLSCAASGSTYNLNALGWSRQAPGKERELVAAIDSGGRTNYADSVKGRFTISRDNAKNTVYVQMNSLKPEDTAVYYCAADVYAYPGSWYDYWGQGTQVTVSS | low polyreactivity
21 | QVQLVESGGGIVQAGGSLRLSCAASGYNFRSYVMGWYRQAPGKERELVAAISVSGGRTYYADSVKGRFTISRDNAKNTVYLQMNSLKPEDTAVYYCATDPYSYYWPSHMDYWGQGTQVTVSS | high polyreactivity
22 | QVQLVESGGGIVQAGGSLRLSCAATGNTFRYYTMGWYRKAPGKERELVAAINYRGSRTYYADSVKGRFTISRDNAKNTVYLQINSLKPEDTAVYYCARAYNAGYRYRSDYWGQGTQVTVSS | high polyreactivity
23 | QVQLVESGGGIVQAGGSLRLSCATSGRIFDNNPKGRYRQAPGKESEMVAAIDWRGGTTDYADSVKGRFTISRDNAKNTVYFQMKSLKPEDTAVYYSNARGLNYYGRTFNYWGQGTQVTVSS | low polyreactivity
24 | QVQLVESGGGIVQAGGSLRLSCGASGSIFVTYTMGWYRQAPGKERELVAAITSDGRTYYADSVKGRFTISRDNAKNTVYLQMNCLKPEDTAVYYCAADSSGYYWFNYWGQGTQVTVSS | low polyreactivity
25 | QVQLVESGGGIVQAGGSLRLSFAASGSTFAGYAMGLYREAPGKERELVATFTYSGGSTYYADSVKGRFSISRDNAKNTVYLQMNSLKPEDTAVYYCAKNASYLWGYEYWGQGTQVTVSS | low polyreactivity
26 | QVQLVESGGGIVQAGGSLRLSSAASGLTFAYNTMGWYRQAPGIEREFVASISSSGGNTYYADSVKGRFTISRDNAKNTVYLQMHSLKPEDTAVYYCAAKKKYHYVATYKRFENWGQGTHVTVSS | low polyreactivity
27 | QVQLVESGGGIVQAGGSLRLSSAASGRIFDTNAMGWYRQAPGKERELVAAITGRGGGTYYADSVKGRFTISRDNAKNTVYLQMNSLKPEDTAVYYCNAFAPIYRHYSWGSGLDYWGQGTLVTVSS | high polyreactivity
28 | QVQLVESGGGIVQAGGSLRLSSAASGSIFYYYAKGWYRQAPGKERELVATINISDGSTYYADSVKGRFTISRDNAKNTVYLQMNSLKPEDTAVYYCAAYYYFLDYDYWGQGTQVTVSS | low polyreactivity
29 | QVQLVESGGGIVQAGGSLRLTCAASGRIFYYYAMGWYRQAPGKEREFVAASSRSGGSTYYADSVKGRFTISRDNAKNTVYLQMNSLKPEDTAVYYCNAVRSYRGDFKYDWGQGTQVTVSS | high polyreactivity
30 | QVQLVESGGGIVQAGGSLRLTCDASGFTFVINDMGRYRQARGKERELVADITSGGDTYYADSVKGRFTISRDNAKNSVYFHRNSLKPEDTAVYFCAADIYPDWIYLLYGYWGQGTQLTVSS | low polyreactivity
